In assay [1] the target is T1, JAK1 phosphopeptide (JAK1-Y1034) (Homo sapiens, UniProt P23458).
T1 construct: purchased Genscript
The assay can be described thus: ITC, CIS constructs binding to JAK1 phosphopeptide. The note with it: CIS constructs with elongins B and C. As for the experimental part:
300 μM phosphopeptides were titrated into a 30 μM solution of the GST-CIS-SH2-BC ternary complex. ITC titration curves are shown. The titration curves all fitted well to a single-site model.
Isothermal calorimetric titrations were performed with a Microcal ITC200 (GE Healthcare). Phosphopeptides were obtained from Genscript. An optimised GST-CIS protein construct was prepared in which the internal PEST region ([…]) was deleted. The resulting ternary GST-CIS-SH2-SB complexes were dialysed against buffer (20 mM Tris pH 8.0, 100 mM NaCl, 2 mM 2-mercaptoethanol). Experiments were performed at 298 K unless stated otherwise. Typically, 12×3.15 μl injections of 300 μM phosphopeptides were titrated into a 30 μM solution of the GST-CIS-SH2-SB ternary complex. The heat of dilution of GST-CIS-SH2-BC was subtracted from the raw data of the binding experiment. Data were analysed using the evaluation software, Microcal Origin version 5.0. The binding curve fitted a single-site binding mode and all KD values were determined from duplicate experiments.
A general note: Isothermal titration calorimetry measures the heat released or taken up as one component is titrated into another.

In a further assay the target is JAK1 (Homo sapiens, UniProt P23458). Put plainly: In vitro kinase inhibition assay, JAK1 kinase domain (JH1) with STAT5b substrate peptide. The format is biochemical. As for the experimental part:
Protein kinase assays, including high throughput kinase assays are known in the art as described in, e.g., in Babon et al. (2013) and Von Ahsen et al. (2005). In one exemplary embodiment 130 μM STAT5b peptide (SEQ ID NO:18 […]) is incubated with 5 nM human JAK1 (see SEQ ID NO:11 for corresponding amino acid sequence) at 25° C. for 30-60 min in 20 mM Tris pH 8.0, 100 mM NaCl, 5 mM 2-mercaptoethanol, 0.2 mg ml^−1 bovine serum albumin, 2 mM MgCl2, 100 μM ATP and 1 μCi γ-[^32P]ATP. […] After incubation, the reaction is spotted onto P81 phosphocellulose paper and quenched in 5% H3PO4. The paper is then washed (4×200 ml, 15 min) with 5% H3PO4 and exposed to a phosphorimager plate. Quantitation is performed using phosphorimager software and IC50 curves are then calculated based on integrated pixel counts.
Kinase inhibition assays were performed essentially as described (Babon et al., 2012). Briefly, 130 μM STAT5b peptide (SEQ ID NO:18 […]) was incubated with 5 nM JAK1 at 25° C. for 30-60 min in 20 mM Tris pH 8.0, 100 mM NaCl, 5 mM 2-mercaptoethanol, 0.2 mg ml^−1 bovine serum albumin, 2 mM MgCl2, 100 μM ATP and 1 mCi γ-[32P]ATP. […] After incubation, the reaction was spotted onto P81 phosphocellulose paper and quenched in 5% H3PO4. The paper was washed (4×200 ml, 15 min) with 5% H3PO4 and exposed to a phosphorimager plate (Fuji). Quantitation was performed using Fuji software and IC50 curves calculated using Graphpad Prism.

This note sets out measurements from patent US11104735B2, “Inhibition of cytokine-induced SH2 protein in NK cells” (The Walter and Eliza Hall Institute of Medical Research, priority 2015, dated 2021).

Bounds are passed on as bounds.

JAK1, sequence (P23458 875-1153 limits assumed): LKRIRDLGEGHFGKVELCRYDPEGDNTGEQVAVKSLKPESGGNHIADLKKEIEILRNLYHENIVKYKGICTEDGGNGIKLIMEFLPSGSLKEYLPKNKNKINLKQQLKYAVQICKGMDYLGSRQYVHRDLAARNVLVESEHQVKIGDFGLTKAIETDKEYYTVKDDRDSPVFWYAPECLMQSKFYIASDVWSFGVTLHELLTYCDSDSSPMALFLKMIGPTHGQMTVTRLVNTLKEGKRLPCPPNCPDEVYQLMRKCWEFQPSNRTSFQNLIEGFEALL

B1: CIS-ΔN34: human CIS lacking the N-terminal 34 residues, in complex with elongins B and C (protein, UniProt Q9NSE2 35-258, looked up, fragment)
chain: QPLPAGAFLEEVAEGTPAQTESEPKVLDPEEDLLCIAKTFSYLRESGWYWGSITASEARQHLQKMPEGTFLVRDSTHPSYLFTLSVKTTRGPTNVRIEYADSSFRLDSNCLSRPRILAFPDVVSLVQHYVASCTADTRSDSPDPAPTPALPMPKEDAPSDPALPAPPPATAVHLKLVQPFVRRSSARSLQHLCRLVINRLVADVDCLPLPRRMADYLRQYPFQL
modifications: complex with elongins B and C
For the molecule B1, the “Binding affinity (ITC) to JAK1 phosphopeptide” value in assay [1] is “greatest reduction in binding”.

B2: CIS-SH2-BC complex: recombinant trimeric complex of human GST-CIS construct (hCIS-SH2; residues 66-258) and Elongins B and C (protein)
chain: MVLCVQGSCPLLAVEQIGRRPLWAQSLELPGPAMQPLPTGAFPEEVTEETPVQAENEPKVLDPEGDLLCIAKTFSYLRESGWYWGSITASEARQHLQKMPEGTFLVRDSTHPSYLFTLSVKTTRGPTNVRIEYADSSFRLDSNCLSRPRILAFPDVVSLVQHYVASCAADTRSDSPDPAPTPALPMSKQDAPSDSVLPIPVATAVHLKLVQPFVRRSSARSLQHLCRLVINRLVADVDCLPLPRRMADYLRQYPFQL
modifications: left off: small tags and cut ends
notes: recombinant trimeric complex of human GST-CIS construct (hCIS-SH2; residues 66-258) and Elongins B and C
On to B2, for which the IC50 in the assay with JAK1 (JAK1 JH1, in vitro kinase reaction, read-out: IC50, inhibition of JAK1 phosphorylation of a substrate peptide) amounted to 120 ± 20 nM. In the assay with JAK1 (JH1 domains of all four JAKs), the “Inhibition of JAK1 relative to inhibition of JAK2, JAK3 or TYK2” value is not below 20 fold. The “Lower efficiency of JAK1 inhibition than SOCS1” value with JAK1 (compared with SOCS1) came to 100 fold.

As a reminder, the IC50 is the concentration that inhibits the measured activity by half.
